This note sets out measurements from paper doi:10.1101/803361 (bioRxiv, 2019).

The target in series [1] is Human Hsc70 (HSPA8), wild type (human, UniProt P11142 1-646). The series is described as follows: HDX-MS.
The series “SEC + native gel or EMSA” concerns the molecule itself. The series is described as follows: SEC + native gel or EMSA.

Human Hsc70 (HSPA8), wild type, sequence (P11142 whole entry): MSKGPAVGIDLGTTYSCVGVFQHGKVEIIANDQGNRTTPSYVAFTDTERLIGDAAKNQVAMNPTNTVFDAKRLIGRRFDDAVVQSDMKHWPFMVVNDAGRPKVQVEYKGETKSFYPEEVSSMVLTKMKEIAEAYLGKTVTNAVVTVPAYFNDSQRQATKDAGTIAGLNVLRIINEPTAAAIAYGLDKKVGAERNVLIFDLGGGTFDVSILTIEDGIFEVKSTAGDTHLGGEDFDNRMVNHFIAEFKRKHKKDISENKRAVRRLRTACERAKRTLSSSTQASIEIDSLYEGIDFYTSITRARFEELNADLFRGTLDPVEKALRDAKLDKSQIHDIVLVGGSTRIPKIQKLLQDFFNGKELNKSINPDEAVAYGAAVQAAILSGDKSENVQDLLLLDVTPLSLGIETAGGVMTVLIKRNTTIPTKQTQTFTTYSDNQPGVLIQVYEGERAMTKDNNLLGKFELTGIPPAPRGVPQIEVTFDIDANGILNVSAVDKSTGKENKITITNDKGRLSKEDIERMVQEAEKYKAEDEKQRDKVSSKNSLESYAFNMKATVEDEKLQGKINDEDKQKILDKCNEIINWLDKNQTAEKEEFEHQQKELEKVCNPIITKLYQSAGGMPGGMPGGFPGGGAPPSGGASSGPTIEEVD

B1: Human heat shock transcription factor 1 (Hsf1), wild type (natural protein)
chain: MDLPVGPGAAGPSNVPAFLTKLWTLVSDPDTDALICWSPSGNSFHVFDQGQFAKEVLPKYFKHNNMASFVRQLNMYGFRKVVHIEQGGLVKPERDDTEFQHPCFLRGQEQLLENIKRKVTSVSTLKSEDIKIRQDSVTKLLTDVQLMKGKQECMDSKLLAMKHENEALWREVASLRQKHAQQQKVVNKLIQFLISLVQSNRILGVKRKIPLMLNDSGSAHSMPKYSRQFSLEHVHGSGPYSAPSPAYSSSSLYAPDAVASSGPIISDITELAPASPMASPGGSIDERPLSSSPLVRVKEEPPSPPQSPRVEEASPGRPSSVDTLLSPTALIDSILRESEPAPASVTALTDARGHTDTEGRPPSPPPTSTPEKCLSVACLDKNELSDHLDAMDSNLDNLQTMLSSHGFSVDTSALLDLFSPSVTVPDMSLPDLDSSLASIQELLSPQEPPRPPEAENSSPDSGKQLVHYTAQPLFLLDPGSVDTGSNDLPVLFELGEGSYFSEGDGFAEDPTISLLTGSEPPKAKDPTVS
In the case of B1, in series [1], the binding result is on record as “binds”.

B2: Hsf1-I190S,I194S (natural protein)
chain: MDLPVGPGAAGPSNVPAFLTKLWTLVSDPDTDALICWSPSGNSFHVFDQGQFAKEVLPKYFKHNNMASFVRQLNMYGFRKVVHIEQGGLVKPERDDTEFQHPCFLRGQEQLLENIKRKVTSVSTLKSEDIKIRQDSVTKLLTDVQLMKGKQECMDSKLLAMKHENEALWREVASLRQKHAQQQKVVNKLSQFLSSLVQSNRILGVKRKIPLMLNDSGSAHSMPKYSRQFSLEHVHGSGPYSAPSPAYSSSSLYAPDAVASSGPIISDITELAPASPMASPGGSIDERPLSSSPLVRVKEEPPSPPQSPRVEEASPGRPSSVDTLLSPTALIDSILRESEPAPASVTALTDARGHTDTEGRPPSPPPTSTPEKCLSVACLDKNELSDHLDAMDSNLDNLQTMLSSHGFSVDTSALLDLFSPSVTVPDMSLPDLDSSLASIQELLSPQEPPRPPEAENSSPDSGKQLVHYTAQPLFLLDPGSVDTGSNDLPVLFELGEGSYFSEGDGFAEDPTISLLTGSEPPKAKDPTVS
In the case of B2, the “stoichiometry N” value in “SEC + native gel or EMSA” was 3.
